Publication PMC13579936, “Walking the tightrope: Balancing opposing cooperativities in dynein assembly” (The Journal of Biological Chemistry, 2026)
Blank lines part the entries; values can stand above or below the binder they belong to.

B1: D. melanogaster dynein light chain Tctex1 (homodimer) (natural protein)
chain: MDDSREESQFIVDDVSKTIKEAIETTIGGNAYQHDKVNNWTGQVVENCLTVLTKEQKPYKYIVTAMIMQKNGAGLHTASSCYWNNDTDGSCTVRWENKTMYCIVSVFGLAV
notes: dynein light chain Tctex1, D. melanogaster; homodimer; source: purity verified by SDS-PAGE and size-exclusion chromatography
B3: D. melanogaster dynein light chain LC8 (homodimer) (natural protein)
chain: MSDRKAVIKNADMSEEMQQDAVDCATQALEKYNIEKDIAAYIKKEFDKKYNPTWHCIVGRNFGSYVTHETRHFIYFYLGQVAILLFKSG
notes: dynein light chain LC8, D. melanogaster; homodimer; source: purity verified by SDS-PAGE and size-exclusion chromatography

Columns and labels:
Test in all cases: ITC; VP-ITC, 25 °C; 50 mM sodium phosphate, 50 mM sodium chloride, 1 mM sodium azide, pH 7.5; 39 isotherms of eight experiment types (IC in cell or in syringe, two- and three-protein titrations, dissociation; 27 from ref. 8, 12 new) fitted globally to a seven-state model by hierarchical Bayesian inference
[1] = molecular target: T1, LII: LC8 homodimer with two IC chains bound (D. melanogaster, UniProt Q24117 1-89; Q24246 84-143); conditions: both partners purified
T1 construct: dynein light chain LC8, D. melanogaster; as the chain of m2; cytoplasmic dynein intermediate chain, D. melanogaster, construct ICTL; as the chain of m1; source: formed from the purified proteins m1 and m2 in the ITC samples; copies: 2 + 2

[2] = molecular target: T2, LI: LC8 homodimer with one IC chain bound (half-bound) (D. melanogaster, UniProt Q24117 1-89; Q24246 84-143); conditions: both partners purified
T2 construct: dynein light chain LC8, D. melanogaster; as the chain of m2; cytoplasmic dynein intermediate chain, D. melanogaster, construct ICTL; as the chain of m1; source: formed from the purified proteins m1 and m2 in the ITC samples; copies: 2 + 1

[3] = molecular target: B3; conditions: both partners purified
[4] = molecular target: B1; conditions: both partners purified
[5] = molecular target: TILI: one IC chain with a half-bound Tctex1 homodimer and a half-bound LC8 homodimer (D. melanogaster) (UniProt Q94524)
[6] = molecular target: T3, TII: Tctex1 homodimer with two IC chains bound (D. melanogaster, UniProt Q94524 1-111; Q24246 84-143); conditions: both partners purified
T3 construct: dynein light chain Tctex1, D. melanogaster; as the chain of m3; cytoplasmic dynein intermediate chain, D. melanogaster, construct ICTL; as the chain of m1; source: formed from the purified proteins m1 and m3 in the ITC samples; copies: 2 + 2
T3 sequence 1: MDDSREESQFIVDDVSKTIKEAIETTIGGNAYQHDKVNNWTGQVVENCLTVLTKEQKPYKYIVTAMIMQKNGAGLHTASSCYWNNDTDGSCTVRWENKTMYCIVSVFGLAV
T3 sequence 2: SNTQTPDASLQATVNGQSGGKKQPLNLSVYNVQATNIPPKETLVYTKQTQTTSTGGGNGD

[7] = molecular target: T4, TI: Tctex1 homodimer with one IC chain bound (half-bound) (D. melanogaster, UniProt Q94524 1-111; Q24246 84-143); conditions: both partners purified
T4 construct: dynein light chain Tctex1, D. melanogaster; as the chain of m3; cytoplasmic dynein intermediate chain, D. melanogaster, construct ICTL; as the chain of m1; source: formed from the purified proteins m1 and m3 in the ITC samples; copies: 2 + 1
T4 sequence 1: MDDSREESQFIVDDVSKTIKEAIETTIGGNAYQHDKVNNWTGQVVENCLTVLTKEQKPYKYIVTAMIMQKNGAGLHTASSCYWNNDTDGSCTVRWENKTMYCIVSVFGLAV
T4 sequence 2: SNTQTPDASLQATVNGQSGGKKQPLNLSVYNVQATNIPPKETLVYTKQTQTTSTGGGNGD

Binder: B1
- dH [1]: -7.72 kcal/mol
- dH [2]: -4.7 kcal/mol

- dH, first IC on the LC8 dimer (state LI) [3]: -14.8 kcal/mol
- dH, second IC on the LC8 dimer (LI to LII) [3]: -15.1 kcal/mol
- dH, first IC on the Tctex1 dimer (state TI) [4]: -6.76 kcal/mol
- dH, second IC on the Tctex1 dimer (TI to TII) [4]: -4.97 kcal/mol
- dH [5]: -18.1 kcal/mol
B2: D. melanogaster dynein intermediate chain ICTL (domain or fragment, UniProt Q24246 84-143, looked up)
chain: SNTQTPDASLQATVNGQSGGKKQPLNLSVYNVQATNIPPKETLVYTKQTQTTSTGGGNGD
notes: cytoplasmic dynein intermediate chain (IC), D. melanogaster; source: purity verified by SDS-PAGE and size-exclusion chromatography

Binder: B3
- dH [6]: -25.8 kcal/mol
- dH [7]: -12.7 kcal/mol
